B1: Apaf-1 CARD domain (residues 1-108) in pCMV-BD (other, UniProt P04386 1-147, looked up)
chain: MKLLSSIEQACDICRLKKLKCSKEKPKCAKCLKNNWECRYSPKTKRSPLTRAHLTEVESRLERLEQLFLLIFPREDLDMILKMDSLQDIKALLTGLFVQDNVNKDAVTDRLASVETDMPLTLRQHRISATSSSEESSNKGQRQLTVSMDAKARNCLLQHREALEKDIKTSYIMDHMISDGFLTISEEEKVRNEPTQQQRAAMLIKMILKKDNDSYVSFYNALLHEGYKDLAALLHDGIPVVSSSSGKDSVSGITS
notes: range 1-147;range 1-108; Member of the two-hybrid CARD panel
B2: ARC CARD domain (residues 1-110) in pCMV-BD (other, UniProt P04386 1-147, looked up)
chain: MKLLSSIEQACDICRLKKLKCSKEKPKCAKCLKNNWECRYSPKTKRSPLTRAHLTEVESRLERLEQLFLLIFPREDLDMILKMDSLQDIKALLTGLFVQDNVNKDAVTDRLASVETDMPLTLRQHRISATSSSEESSNKGQRQLTVSMGNAQERPSETIDRERKRLVETLQADSGLLLDALLARGVLTGPEYEALDALPDAERRVRRLLLLVQGKGEAACQELLRCAQRTAGAPDPAWDWQHVGPGYRDRSYDPPCP
notes: range 1-147;range 1-110; Member of the two-hybrid CARD panel
B3: CARD-9-CARD/BD (other, yeast)
chain: MKLLSSIEQACDICRLKKLKCSKEKPKCAKCLKNNWECRYSPKTKRSPLTRAHLTEVESRLERLEQLFLLIFPREDLDMILKMDSLQDIKALLTGLFVQDNVNKDAVTDRLASVETDMPLTLRQHRISATSSSEESSNKGQRQLTVSMSDYENDDECWNVLEGFRVTLTSVIDPSRITPYLRQCKVLNPDDEEQVLSDPNLVIRKRKVGVLLDILQRTGHKGYVAFLESLELYYPQLYKKVTGKEPARVFSMIIDAS
B4: ASC CARD domain (residues 92-195) in pCMV-BD (other, UniProt P04386 1-147, looked up)
chain: MKLLSSIEQACDICRLKKLKCSKEKPKCAKCLKNNWECRYSPKTKRSPLTRAHLTEVESRLERLEQLFLLIFPREDLDMILKMDSLQDIKALLTGLFVQDNVNKDAVTDRLASVETDMPLTLRQHRISATSSSEESSNKGQRQLTVSGSGAAPAGIQAPPQSAAKPGLHFIDQHRAALIARVTNVEWLLDALYGKVLTDEQYQAVRAEPTNPSKMRKLFSFTPAWNWTCKDLLLQALRESQSYLVEDLERS
notes: range 1-147;range 92-195; Member of the two-hybrid CARD panel
B5: RICK CARD domain (residues 417-540) in pCMV-BD (other, UniProt P04386 1-147, looked up)
chain: MKLLSSIEQACDICRLKKLKCSKEKPKCAKCLKNNWECRYSPKTKRSPLTRAHLTEVESRLERLEQLFLLIFPREDLDMILKMDSLQDIKALLTGLFVQDNVNKDAVTDRLASVETDMPLTLRQHRISATSSSEESSNKGQRQLTVSAIINPLSTAGNSERLQPGIAQQWIQSKREDIVNQMTEACLNQSLDALLSRDLIMKEDYELVSTKPTRTSKVRQLLDTTDIQGEEFAKVIVQKLKDNKQMGLQPYPEILVVSRSPSLNLLQNKSM
notes: range 1-147;range 417-540; Member of the two-hybrid CARD panel
B6: CARD-9-CARD/AD (other, mouse)
chain: SPMLLPSGQISNQALALAPSSAPVLAQTMVPSSAMVPLAQPPAPAPVLTPGPPQSLSAPVPKSTQAGEGTLSEALLHLQFDADEDLGALLGNSTDPGVFTDLASVDNSEFQQLLNQGVSMSHSTAEPMLMEYPEAITRLVTGSQRPPDPAPTPLGTSGLPNGLSGDEDFSSIADMDFSALLSQISSMSDYENDDECWNVLEGFRVTLTSVIDPSRITPYLRQCKVLNPDDEEQVLSDPNLVIRKRKVGVLLDILQRTGHKGYVAFLESLELYYPQLYKKVTGKEPARVFSMIIDAS
B7: RAIDD CARD domain (residues 1-108) in pCMV-BD (other, UniProt P04386 1-147, looked up)
chain: MKLLSSIEQACDICRLKKLKCSKEKPKCAKCLKNNWECRYSPKTKRSPLTRAHLTEVESRLERLEQLFLLIFPREDLDMILKMDSLQDIKALLTGLFVQDNVNKDAVTDRLASVETDMPLTLRQHRISATSSSEESSNKGQRQLTVSMEARDKQVLRSLRLELGAEVLVEGLVLQYLYQEGILTENHIQEINAQTTGLRKTMLLLDILPSRGPKAFDTFLDSLQEFPWVREKLKKAREEAMTDLPAGDRLTGIPS
notes: as for B1
B8: CARD-4 CARD domain (residues 1-119) in pCMV-BD (other, UniProt P04386 1-147, looked up)
chain: MKLLSSIEQACDICRLKKLKCSKEKPKCAKCLKNNWECRYSPKTKRSPLTRAHLTEVESRLERLEQLFLLIFPREDLDMILKMDSLQDIKALLTGLFVQDNVNKDAVTDRLASVETDMPLTLRQHRISATSSSEESSNKGQRQLTVSMEEQGHSEMEIIPSESHPHIQLLKSNRELLVTHIRNTQCLVDNLLKNDYFSAEDAEIVCACPTQPDKVRKILDLVQSKGEEVSEFFLYLLQQLADAYVDLRPWLLEIGFSPSLLTQSKV
notes: range 1-147;range 1-119; Member of the two-hybrid CARD panel
B9: caspase-12 CARD domain (residues 1-121) in pCMV-BD (other, UniProt P04386 1-147, looked up)
chain: MKLLSSIEQACDICRLKKLKCSKEKPKCAKCLKNNWECRYSPKTKRSPLTRAHLTEVESRLERLEQLFLLIFPREDLDMILKMDSLQDIKALLTGLFVQDNVNKDAVTDRLASVETDMPLTLRQHRISATSSSEESSNKGQRQLTVSMAARRTHERDPIYKIKGLAKDMLDGVFDDLVEKNVLNGDELLKIGESASFILNKAENLVENFLEKTDMAGKIFAGHIANSQEQLSLQFSNDEDDGPQKICTPSSPSESKRKVEDDEMEVNA
notes: range 1-147;range 1-121; Member of the two-hybrid CARD panel
B10: CARD-11-CARD fused to the NF-kB activation domain (pCMV-CARD-11/AD) (other, mouse)
chain: SPMLLPSGQISNQALALAPSSAPVLAQTMVPSSAMVPLAQPPAPAPVLTPGPPQSLSAPVPKSTQAGEGTLSEALLHLQFDADEDLGALLGNSTDPGVFTDLASVDNSEFQQLLNQGVSMSHSTAEPMLMEYPEAITRLVTGSQRPPDPAPTPLGTSGLPNGLSGDEDFSSIADMDFSALLSQISSEEDALWENVECNRHMLSRYINPAKLTPYLRQCKVIDEQDEDEVLNAPMLPSKINRAGRLLDILHTKGQRGYVVFLESLEFYYPELYKLVTGKE
B11: Bcl-10-CARD/BD (other, UniProt P04386 1-147, looked up)
chain: MKLLSSIEQACDICRLKKLKCSKEKPKCAKCLKNNWECRYSPKTKRSPLTRAHLTEVESRLERLEQLFLLIFPREDLDMILKMDSLQDIKALLTGLFVQDNVNKDAVTDRLASVETDMPLTLRQHRISATSSSEESSNKGQRQLTVSMEPTAPSLTEEDLTEVKKDALENLRVYLCEKIIAERHFDHLRAKKILSREDTEEISCRTSSRKRAGKLLDYLQENPKGLDTLVESIRREKTQNFLIQKITDEVL
notes: range 1-147;range 1-104; Two-hybrid construct in pCMV-BD; also called CARD of Bcl-10; CARD of Bcl10

Tests used:
[1] = target: Bcl-10 dominant negative deletion mutant (amino acids 1-104) (UniProt O95999); test: cell-based or functional assay
[2] = target: B10; test: mammalian two-hybrid, 293T cells
Experimental: (§1) For the additional mammalian two-hybrid assays, 293T cells in 6-well plates (35-mm wells) were transfected with the following plasmids: 750 ng of pCMV-CARD-9/AD, 750 ng of pCMV-CARD/BD, 250 ng of pFR-Luc firefly reporter (Stratagene), and 250 ng of pRL-TK renilla reporter (Promega). For NF-?B assays, 293T cells were transfected with the following plasmids: 900 ng of pNF-kB luciferase reporter (Stratagene), 100 ng of pRL-TK renilla reporter (Promega) and 1000 ng of indicated expression plasmids. Cells were harvested 24 h after transfection, and firefly luciferase activity was determined using the Dual-Luciferase Reporter Assay System (Promega). In addition, renilla luciferase activity was determined and used to normalize transfection efficiencies.
(§2) To identify the binding partners of CARD-11, a mammalian two-hybrid analysis was performed using the CARD domains of 15 known proteins. For mammalian two-hybrid assays, 293T cells in 6-well plates (35-mm wells) were transfected with the following plasmids: 750 ng of pCMV-CARD-11/AD, 750 ng of pCMV-BD fused to individual CARD domains, 250 ng of pFR-Luc firefly reporter (Stratagene), and 250 ng of pRL-TK renilla reporter (Promega). pCMV-CARD-11 /AD and pCMV-CARD/BD plasmids were constructed by inserting individual CARD domains into pCMV-CARD/AD and pCMV-BD, respectively (Stratagene): Bcl-10 (residues 1-104), ARC (residues 1-110), RICK (residues 417-540), CARD-4 (residues 1-1 19), ASC (residues 92-195), caspase-I (residues 1-110), caspase-2 (residues 1-122), caspase-4 (residues 1-108), caspase-9 (residues 1-111), caspase-11 (residues 1-122), caspase-12 (residues 1-121), IAP-1 (residues 423-543), IAP-2 (residues 450-557), Apaf-1 (residues 1-108) and RAIDD (residues 1 -108). Cells were harvested 24 hours after transfection, and firefly luciferase activity was determined using the Dual-Luciferase Reporter Assay System (Promega). In addition, renilla luciferase activity was determined and used to normalize transfection efficiencies.

[3] = target: B6; test: mammalian two-hybrid, 293T cells
Experimental: as §1, §2

[4] = target: T1, Bcl-10-CARD/AD (mouse, UniProt Q04207 364-549; O95999 1-104); test: cell-based or functional assay
T1 sequence (looked up): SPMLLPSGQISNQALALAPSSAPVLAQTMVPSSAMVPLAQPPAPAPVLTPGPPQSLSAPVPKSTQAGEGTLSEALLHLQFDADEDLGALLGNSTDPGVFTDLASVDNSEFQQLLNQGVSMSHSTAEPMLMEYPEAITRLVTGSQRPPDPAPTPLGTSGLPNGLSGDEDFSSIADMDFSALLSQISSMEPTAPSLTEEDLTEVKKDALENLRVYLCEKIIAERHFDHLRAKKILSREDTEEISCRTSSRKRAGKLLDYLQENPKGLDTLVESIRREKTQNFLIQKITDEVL

[5] = target: B11; test: cell-based or functional assay

| Molecule | binding result [2] | binding result [3] | also measured |
| --- | --- | --- | --- |
| human CARD-11 (from UniProt Q9BXL7 8-1154) | – | – | NF-κB activity (luciferase reporter) left with dominant negative Bcl-10 (times above background) [1]: 1.7; NF-κB activity (luciferase reporter), reduction by dominant negative Bcl-10 [1]: 4 fold |
| human CARD-10 (from UniProt Q9BWT7 1-1032) | – | – | NF-κB activity (luciferase reporter) left with dominant negative Bcl-10 (times above background) [1]: 10; NF-κB activity (luciferase reporter), reduction by dominant negative Bcl-10 [1]: 35 fold |
| B1 | no binding | no binding | – |
| B2 | no binding | no binding | – |
| B3 | – | – | luciferase activity (mammalian two-hybrid reporter) [4]: 75 fold |
| B4 | no binding | no binding | – |
| B5 | no binding | no binding | – |
| B6 | – | – | relative luciferase activity (mammalian two-hybrid reporter) [5]: 250 fold |
| B7 | no binding | no binding | – |
| B8 | no binding | no binding | – |
| B9 | no binding | no binding | – |
| B10 | – | – | relative luciferase activity (mammalian two-hybrid reporter) [5]: 17 fold |
| B11 | – | binds | – |

Reference: patent US20030113787A1 (Takeda / Millennium, published 2003)
